Measurements from article PMC10397247.

Tests used:
O15 = target: T1, O15; test: two-hybrid library CCNG1;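 further: natural log of median RNA to DNA barcode read ratio; higher means stronger binding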
T1 chain: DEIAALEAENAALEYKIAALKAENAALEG

O16 = target: T2, O16; test: two-hybrid library CCNG1;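 further: natural log of median RNA to DNA barcode read ratio; higher means stronger binding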
T2 chain: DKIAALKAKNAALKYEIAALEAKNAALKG

O12 = target: T3, O12; test: two-hybrid library CCNG1;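 further: natural log of median RNA to DNA barcode read ratio; higher means stronger binding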
T3 chain: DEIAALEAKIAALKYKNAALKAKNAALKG

O13 = target: T4, O13; test: two-hybrid library CCNG1;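 further: natural log of median RNA to DNA barcode read ratio; higher means stronger binding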
T4 chain: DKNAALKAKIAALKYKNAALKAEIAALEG

O11 = target: T5, O11; test: two-hybrid library CCNG1
T5 chain: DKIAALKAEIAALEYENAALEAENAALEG

O14 = target: T6, O14; test: two-hybrid library CCNG1
T6 chain: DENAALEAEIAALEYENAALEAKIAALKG

O10 = target: T7, O10; test: two-hybrid library CCNG1
T7 chain: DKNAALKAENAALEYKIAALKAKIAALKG

O7 = target: T8, O7; test: two-hybrid library CCNG1
T8 chain: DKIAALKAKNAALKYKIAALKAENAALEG

O2 = target: T9, O2; test: two-hybrid library CCNG1
T9 chain: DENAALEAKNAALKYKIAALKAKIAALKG

O9 = target: T10, O9; test: two-hybrid library CCNG1
T10 chain: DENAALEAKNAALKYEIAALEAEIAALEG

O4 = target: T11, O4; test: two-hybrid library CCNG1
T11 chain: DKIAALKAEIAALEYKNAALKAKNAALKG

O8 = target: T12, O8; test: two-hybrid library CCNG1
T12 chain: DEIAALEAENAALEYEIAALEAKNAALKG

O6 = target: T13, O6; test: two-hybrid library CCNG1
T13 chain: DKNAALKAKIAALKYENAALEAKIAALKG

O1 = target: T14, O1; test: two-hybrid library CCNG1
T14 chain: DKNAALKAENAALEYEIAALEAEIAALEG

O3 = target: T15, O3; test: two-hybrid library CCNG1
T15 chain: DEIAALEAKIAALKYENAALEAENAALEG

O5 = target: T16, O5; test: two-hybrid library CCNG1
T16 chain: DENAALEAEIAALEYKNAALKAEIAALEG

4H570-bA = target: T17, 4H570-bA; test: two-hybrid library CCNG1
T17 chain: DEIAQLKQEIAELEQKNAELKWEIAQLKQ

4H1899-bA = target: T18, 4H1899-bA; test: two-hybrid library CCNG1
T18 chain: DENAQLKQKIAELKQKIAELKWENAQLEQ

4H1544-bA = target: T19, 4H1544-bA; test: two-hybrid library CCNG1
T19 chain: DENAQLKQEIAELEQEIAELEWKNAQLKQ

4H1710-bA = target: T20, 4H1710-bA; test: two-hybrid library CCNG1
T20 chain: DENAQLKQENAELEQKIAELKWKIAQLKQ

4H3858-bA = target: T21, 4H3858-bA; test: two-hybrid library CCNG1
T21 chain: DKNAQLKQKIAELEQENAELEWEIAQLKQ

4H3817-bA = target: T22, 4H3817-bA; test: two-hybrid library CCNG1
T22 chain: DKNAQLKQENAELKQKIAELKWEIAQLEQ

4H1348-bA = target: T23, 4H1348-bA; test: two-hybrid library CCNG1
T23 chain: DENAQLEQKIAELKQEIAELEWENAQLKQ

4H1985-bA = target: T24, 4H1985-bA; test: two-hybrid library CCNG1
T24 chain: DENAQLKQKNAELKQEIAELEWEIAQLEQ

4H1373-bA = target: T25, 4H1373-bA; test: two-hybrid library CCNG1
T25 chain: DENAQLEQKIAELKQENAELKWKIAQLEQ

4H1338-bA = target: T26, 4H1338-bA; test: two-hybrid library CCNG1
T26 chain: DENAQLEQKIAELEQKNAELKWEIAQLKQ

4H3613-bA = target: T27, 4H3613-bA; test: two-hybrid library CCNG1
T27 chain: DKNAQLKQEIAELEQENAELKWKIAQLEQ

4H3628-bA = target: T28, 4H3628-bA; test: two-hybrid library CCNG1
T28 chain: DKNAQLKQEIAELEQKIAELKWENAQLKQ

4H850-bA = target: T29, 4H850-bA; test: two-hybrid library CCNG1
T29 chain: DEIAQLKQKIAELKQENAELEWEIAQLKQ

4H1449-bA = target: T30, 4H1449-bA; test: two-hybrid library CCNG1
T30 chain: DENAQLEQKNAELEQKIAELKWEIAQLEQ

4H3974-bA = target: T31, 4H3974-bA; test: two-hybrid library CCNG1
T31 chain: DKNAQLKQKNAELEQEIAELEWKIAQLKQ

4H850-bH = target: T32, 4H850-bH; test: two-hybrid library CCNG1
T32 chain: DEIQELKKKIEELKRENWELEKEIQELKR

4H570-bH = target: T33, 4H570-bH; test: two-hybrid library CCNG1
T33 chain: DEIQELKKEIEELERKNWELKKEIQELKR

4H3858-bH = target: T34, 4H3858-bH; test: two-hybrid library CCNG1
T34 chain: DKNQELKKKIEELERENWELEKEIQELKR

4H3974-bH = target: T35, 4H3974-bH; test: two-hybrid library CCNG1
T35 chain: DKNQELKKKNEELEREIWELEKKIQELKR

4H369-AA = target: T36, 4H369-AA; test: two-hybrid library CCmax; details: mean of both orientations
T36 chain: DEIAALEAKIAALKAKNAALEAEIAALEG

4H629-AA = target: T37, 4H629-AA; test: two-hybrid library CCmax
T37 chain: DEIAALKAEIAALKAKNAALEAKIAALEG

4H662-AA = target: T38, 4H662-AA; test: two-hybrid library CCmax; details: mean of both orientations
T38 chain: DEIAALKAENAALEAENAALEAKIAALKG

4H55-AA = target: T39, 4H55-AA; test: two-hybrid library CCmax; details: mean of both orientations
T39 chain: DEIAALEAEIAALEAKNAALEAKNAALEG

4H1082-AA = target: T40, 4H1082-AA; test: two-hybrid library CCmax
T40 chain: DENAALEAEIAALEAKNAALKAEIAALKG

4H327-AA = target: T41, 4H327-AA; test: two-hybrid library CCmax; details: mean of both orientations
T41 chain: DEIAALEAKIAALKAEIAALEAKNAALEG

4H3922-AA = target: T42, 4H3922-AA; test: two-hybrid library CCmax; details: mean of both orientations
T42 chain: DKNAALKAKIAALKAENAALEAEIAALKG

4H3625-AA = target: T43, 4H3625-AA; test: two-hybrid library CCmax; details: mean of both orientations
T43 chain: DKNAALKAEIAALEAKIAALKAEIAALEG

4H2726-AA = target: T44, 4H2726-AA; test: two-hybrid library CCmax; details: mean of both orientations
T44 chain: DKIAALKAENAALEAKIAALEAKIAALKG

4H3605-AA = target: T45, 4H3605-AA; test: two-hybrid library CCmax; details: mean of both orientations
T45 chain: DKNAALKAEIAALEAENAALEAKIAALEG

4H2935-AA = target: T46, 4H2935-AA; test: two-hybrid library CCmax; details: mean of both orientations
T46 chain: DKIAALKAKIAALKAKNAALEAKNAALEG

4H2238-AA = target: T47, 4H2238-AA; test: two-hybrid library CCmax; details: mean of both orientations
T47 chain: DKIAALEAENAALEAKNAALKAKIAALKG

4H2536-AA = target: T48, 4H2536-AA; test: two-hybrid library CCmax; details: mean of both orientations
T48 chain: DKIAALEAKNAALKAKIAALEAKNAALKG

4H2513-AA = target: T49, 4H2513-AA; test: two-hybrid library CCmax; details: mean of both orientations
T49 chain: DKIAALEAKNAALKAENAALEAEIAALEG

4H2614-AA = target: T50, 4H2614-AA; test: two-hybrid library CCmax; details: mean of both orientations
T50 chain: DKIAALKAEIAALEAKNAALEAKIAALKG

4H1405-AA = target: T51, 4H1405-AA; test: two-hybrid library CCmax; details: mean of both orientations
T51 chain: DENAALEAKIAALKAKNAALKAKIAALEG

4H1198-AA = target: T52, 4H1198-AA; test: two-hybrid library CCmax; details: mean of both orientations
T52 chain: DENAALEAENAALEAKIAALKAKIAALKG

4H4033-AA = target: T53, 4H4033-AA; test: two-hybrid library CCmax; details: mean of both orientations
T53 chain: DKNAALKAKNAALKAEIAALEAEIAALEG

4H2211-AA = target: T54, 4H2211-AA; test: two-hybrid library CCmax; details: mean of both orientations
T54 chain: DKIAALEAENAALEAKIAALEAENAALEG

4H1103-AA = target: T55, 4H1103-AA; test: two-hybrid library CCmax; details: mean of both orientations
T55 chain: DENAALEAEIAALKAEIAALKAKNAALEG

4H3664-AA = target: T56, 4H3664-AA; test: two-hybrid library CCmax; details: mean of both orientations
T56 chain: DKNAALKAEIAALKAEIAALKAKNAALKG

4H2608-AA = target: T57, 4H2608-AA; test: two-hybrid library CCmax; details: mean of both orientations
T57 chain: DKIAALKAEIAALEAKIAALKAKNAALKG

4H481-AA = target: T58, 4H481-AA; test: two-hybrid library CCmax; details: mean of both orientations
T58 chain: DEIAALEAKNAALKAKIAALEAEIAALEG

4H1350-AA = target: T59, 4H1350-AA; test: two-hybrid library CCmax; details: mean of both orientations
T59 chain: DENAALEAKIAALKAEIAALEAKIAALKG

DKNAALKAENAALEYEIAALEAEIAALEG [O1] was tested, and the interaction score (O15) was -2.03, the interaction score (O16) was -2.54 and the interaction score (O12) was -2.35. It also gave an interaction score (O13) of -1.26, an interaction score (O11) of -2.38 and an interaction score (O14) of -2.4. For the same binder, the interaction score (O10) was -1.12, the interaction score (O7) was -2.15 and the interaction score (O2) was 1.45. For the same binder, the interaction score (O9) was -1.83, the interaction score (O4) was -2.08 and the interaction score (O8) was -2.46. The interaction score (O6) was -2.86, the interaction score (O1) was -2.12 and the interaction score (O3) was -2.08. It also gave an interaction score (O5) of -2.09.

With DENAQLEQKIAELEQKNAELKWEIAQLKQ [4H1338-bA] the interaction score (4H570-bA) was -0.499, the interaction score (4H1899-bA) was -0.794 and the interaction score (4H1544-bA) was -0.0537. It also gave an interaction score (4H1710-bA) of -1.12, an interaction score (4H3858-bA) of 1.87 and an interaction score (4H3817-bA) of -0.561. For the same binder, the interaction score (4H1348-bA) was -0.532, the interaction score (4H1985-bA) was 0.203 and the interaction score (4H1373-bA) was -0.825. It also gave an interaction score (4H1338-bA) of -0.0383, an interaction score (4H3613-bA) of 0.511 and an interaction score (4H3628-bA) of -0.607. It also gave an interaction score (4H850-bA) of 1.4, an interaction score (4H1449-bA) of -0.906 and an interaction score (4H3974-bA) of 1.12.

In the case of DKNQELKKKIEELERENWELEKEIQELKR [4H3858-bH], the interaction score (4H850-bH) is reported as -0.759, the interaction score (4H570-bH) is reported as 1.32 and the interaction score (4H3858-bH) is reported as 1.05. The interaction score (4H3974-bH) was -0.677 and the interaction score (O1) was -0.992.

DENAALEAEIAALEAKNAALKAEIAALKG [4H1082-AA] gave an interaction score (4H369-AA) of -0.173, an interaction score (4H629-AA) of -0.619 and an interaction score (4H662-AA) of -0.82. It also gave an interaction score (4H55-AA) of -1.89, an interaction score (4H1082-AA) of -0.277 and an interaction score (4H327-AA) of -0.938. For the same binder, the interaction score (4H3922-AA) was 2.18, the interaction score (4H3625-AA) was -0.987 and the interaction score (4H2726-AA) was -0.0246. The interaction score (4H3605-AA) was 1.35, the interaction score (4H2935-AA) was -1.5 and the interaction score (4H2238-AA) was -1.2. It also gave an interaction score (4H2536-AA) of -1.58, an interaction score (4H2513-AA) of -0.261 and an interaction score (4H2614-AA) of 0.814. The interaction score (4H1405-AA) was -1.13, the interaction score (4H1198-AA) was -0.589 and the interaction score (4H4033-AA) was -0.637. For the same binder, the interaction score (4H2211-AA) was -0.726, the interaction score (4H1103-AA) was -1.29 and the interaction score (4H3664-AA) was -1.83. It also gave an interaction score (4H2608-AA) of 1.21, an interaction score (4H481-AA) of -1.09 and an interaction score (4H1350-AA) of 0.509.
